These results are taken from patent publication US20230057461A1 (US Dept. of Health and Human Services, published 2023).

The test addresses T1, Rab escort protein REP-1 (UniProt P24386 1-653).
T1 construct: Endogenous protein detected by Western blot (Abcam cat# 134964)
T1 sequence (looked up): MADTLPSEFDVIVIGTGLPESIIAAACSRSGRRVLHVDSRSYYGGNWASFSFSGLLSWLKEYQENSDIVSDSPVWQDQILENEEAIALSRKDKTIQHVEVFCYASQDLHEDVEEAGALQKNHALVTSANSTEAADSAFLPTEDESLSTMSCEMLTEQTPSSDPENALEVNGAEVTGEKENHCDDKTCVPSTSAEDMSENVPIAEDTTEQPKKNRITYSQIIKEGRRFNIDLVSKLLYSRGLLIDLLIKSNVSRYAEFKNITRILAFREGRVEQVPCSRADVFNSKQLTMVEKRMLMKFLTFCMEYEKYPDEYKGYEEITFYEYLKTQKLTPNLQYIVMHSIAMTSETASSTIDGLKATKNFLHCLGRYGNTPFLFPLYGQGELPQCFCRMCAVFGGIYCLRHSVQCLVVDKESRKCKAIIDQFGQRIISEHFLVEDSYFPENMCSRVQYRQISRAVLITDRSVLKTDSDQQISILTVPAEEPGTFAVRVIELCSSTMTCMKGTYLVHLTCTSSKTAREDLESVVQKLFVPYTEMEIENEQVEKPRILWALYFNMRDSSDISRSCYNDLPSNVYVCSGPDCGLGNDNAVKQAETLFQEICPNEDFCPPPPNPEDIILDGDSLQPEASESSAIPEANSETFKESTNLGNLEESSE
Nature of the test: co-immunoprecipitation of GFP-Rab13 with GFP-Trap beads from MDA-MB-231 lysates, Western blot. The procedure:
For immunoprecipitations, cells were lysed with a buffer containing 50mM Tris pH 7.4, 1% NP-40, 150mM NaCl, 10mM MgC12, 10% glycerol and a cocktail of protease and phosphatase inhibitors (Thermo Fischer Scientific, cat# 1861281). Lysates were cleared by centrifugation and mixed with GFP-Trap Magnetic Agarose beads (Chromotek, cat# gtma-10) for 1.5 h, at 4° C. Immobilized complexes were eluted with Laemmli's buffer and analyzed by SDS-PAGE and immunoblotting.

B1: GFP-Rab13 (N-terminally GFP-tagged human Rab13) (other, UniProt P51153 1-203, looked up, not shown: large carriers)
chain: MAKAYDHLFKLLLIGDSGVGKTCLIIRFAEDNFNNTYISTIGIDFKIRTVDIEGKKIKLQVWDTAGQERFKTITTAYYRGAMGIILVYDITDEKSFENIQNWMKSIKENASAGVERLLLGNKCDMEAKRKVQKEQADKLAREHGIRFFETSAKSSMNVDEAFSSLARDILLKSGGRRSGNGNKPPSTDLKTCDKKNTNKCSLG
notes: Stably expressed in MDA-MB-231 cells from constructs with the wild type or the delta-PMO Rab13 3'UTR; the encoded protein is the same; Assayed from cell lysates; also called exogenous GFP-Rab13; exogenous Rab13
In the case of B1, the binding result was “binds”.
